# In publication PMC6753139, “TRIM66 reads unmodified H3R2K4 and H3K56ac to respond to DNA damage in embryonic stem cells” (Nature Communications, 2019):
# Where no end group is shown, it is not given here. [ ]: non-standard residue; d: D form. Arg(Me2a) = CN(C)C(=N)NCCC[C@H](N)C(=O)O; Arg(Me) = CNC(=N)NCCC[C@H](N)C(=O)O
# B1: H3_(1-12)R2me2a peptide (peptide, UniProt P68431 2-13, looked up)
# peptide: A[Arg(Me2a)]TKQTARKSTG
# notes: histone H3.1, Homo sapiens, residues 1-12; also called H3R2me2a; source: synthetic peptide (GL Biochem)
# B2: H3_(1-12)R2me1 peptide (peptide, UniProt P68431 2-13, looked up)
# peptide: A[Arg(Me)]TKQTARKSTG
# notes: histone H3, residues 1-12; also called H3R2me1; monomethylated H3R2; source: synthetic peptide (GL Biochem, Shanghai)
# B3: H3_(1-12)R2me2a peptide (peptide, UniProt P68431 2-13, looked up)
# peptide: A[Arg(Me2a)]TKQTARKSTG
# notes: histone H3, residues 1-12; also called H3R2me2a; asymmetrically dimethylated H3R2; source: synthetic peptide (GL Biochem, Shanghai)
# B4: H3_(1-12)R2me1 peptide (peptide, UniProt P68431 2-13, looked up)
# peptide: A[Arg(Me)]TKQTARKSTG
# notes: histone H3.1, Homo sapiens, residues 1-12; also called H3R2me1; source: synthetic peptide (GL Biochem)
# How the values were obtained:
# [1] = target: T1, TRIM66-WT965-1160 (Homo sapiens, UniProt O15016); experiment: ITC, PHD-Bromodomain wild type; assay type: binding; settings: for Kd / KD: MicroCal PEAQ-ITC, 20 mM Tris, 100 mM NaCl, error from curve fit, Weak binding = ITC curves cannot be fitted reliably, N.D. = no detectable binding
# T1 construct: ITC titration: titrating TRIM66-WT965-1160 with various histone H3 peptides; GST (N, cleaved yes); made in house; host or cells: Escherichia coli BL21 (DE3)
# T1 sequence (O15016 1100-1295): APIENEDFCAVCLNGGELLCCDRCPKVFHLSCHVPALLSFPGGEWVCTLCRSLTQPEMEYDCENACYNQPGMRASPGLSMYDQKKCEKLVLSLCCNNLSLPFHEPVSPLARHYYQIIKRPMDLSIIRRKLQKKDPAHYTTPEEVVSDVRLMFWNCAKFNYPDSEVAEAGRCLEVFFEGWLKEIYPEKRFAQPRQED
# Excerpt: We next performed the glutathione S-transferase (GST) pulldown assays of the TRIM66-WT965-1160 against the calf thymus histones to verify the histone-binding ability of TRIM66 PHD-Bromodomain. […] The PHD of TRIM66 shared a low conservation with those of ING4, PHF2, and BPTF, and lacked the conserved aromatic residues, which were necessary for binding H3K4me2/3[40]–[42] (Supplementary Fig. 2b). Nevertheless, TRIM66 was highly conserved in sequence and structure with the PHDs of TRIM24 and TRIM33 (Fig. 1c and Supplementary Fig. 2b), which were reported to bind H3K4me0[5],[6]; thus, we speculated that the PHD of TRIM66 could bind H3K4me0. To verify this hypothesis, we performed isothermal titration calorimetry (ITC)-based binding assays. […] Based on previous researches reporting the acetyl-lysine binding partners of Bromodomain[3]–[12], we chose a series of related peptides derived from H3 and H4, to test their interactions with TRIM66-WT965-1160 by ITC experiments. […] We further found the acetylated state of K56 was necessary for this binding (Supplementary Fig. 3b).
# We next titrated the TRIM66-WT965-1160 with a series of R2-methylated H3 peptides through ITC assays. […] This finding was consistent with the structural observation that each NηH atom of the R2 formed a hydrogen bond with residues in protein (Fig. 2d).
# The DNA fragments of human TRIM66_968-1160, TRIM24_824-1006, and TRIM33_882-1087 were amplified from a human bone marrow cDNA library using a PCR-based cloning strategy. The fragments of TRIM66-WT968-1160 were inserted into a pGEX-4T-1 plasmid (GE Healthcare). The fragments of TRIM24_824-1006 and TRIM33_882-1087 were ligated into a pET-SUMO-28a (+) plasmid (Novagen). The DNA fragments of TRIM66-MUT968-1160 and TRIM66-WT965-1160 with codon optimization were synthesized by General Biosystems (sequence was shown in Supplementary Methods) and inserted into a pGEXT-4T-1 plasmid (GE Healthcare). Mutants of TRIM66 PHD-Bromo were generated through PCR using the Mutant Best kit (Takara). The mutation of point mutant based on the codon-optimized DNA sequence of TRIM66-WT965-1160. All constructs were expressed in Escherichia coli BL21 (DE3). The construct of ASF1a1-156 inserted into a pRSFDuet plasmid (courtesy of Ruiming Xu Lab, Institute of Biophysics, Chinese Academy of Sciences) was expressed in E. coli BL21 (DE3) RIL. The construct of full-length H4 inserted into a pET3a plasmid was expressed in E. coli BL21 (DE3). The expression of full-length histone H3K56ac was performed in BL21 (DE3) cells transformed with pBK-AxcKRS3 and pET22b encoding H3 with amber codons at the K56 site[12]. The DNA fragment of full-length TRIM66 was synthesized by General Biosystems and ligated into fugw vector (Addgene). See the information of protein sequence in Supplementary Table 1.
# The calorimetric experiments were performed at 25 °C using a MicroCal PEAQ-ITC. The proteins were dialyzed using a buffer containing 20 mM Tris and 100 mM NaCl at pH 7.5. Lyophilized peptides were dissolved in the same buffer and adjusted to pH 7.5 prior to use. Peptide concentrations were estimated from the quantitative NMR experiments[73],[74]. ITC measurements were performed via injection of 0.7–4 mM peptide into a cell containing 0.12 mM TRIM24-PHD-Bromo, 0.05 mM TRIM33 PHD-Bromo, and 0.05 or 0.11–0.15 mM TRIM66-PHD-Bromo (or its mutants). The ITC data were subsequently analyzed using the MicroCal PEAQ-ITC analysis software.
# [2] = target: TRIM66-WT_(965-1160) (PHD-Bromodomain) (human) (UniProt O15016); experiment: ITC; MicroCal PEAQ-ITC, 25 °C, 20 mM Tris, 100 mM NaCl, pH 7.5; 0.7-4 mM peptide injected into the cell with 0.12 mM TRIM24-PHD-Bromo, 0.05 mM TRIM33 PHD-Bromo, or 0.05 or 0.11-[…] TRIM66-PHD-Bromo (or its mutants); single measurement, errors from the fitting curve
# [3] = target: TRIM66-WT_(965-1160) (human) (UniProt O15016); experiment: ITC; 0.7–4 mM peptide injected into a cell with 0.05 or 0.11–[…] TRIM66-PHD-Bromo (or its mutants), 0.12 mM TRIM24-PHD-Bromo or 0.05 mM TRIM33 PHD-Bromo; 25 °C; 20 mM Tris, 100 mM NaCl, pH 7.5; MicroCal PEAQ-ITC; single measurement
# [4] = target: TRIM66-GSGS_(968-1160) (PHD-Bromodomain) (human) (UniProt O15016); experiment: ITC; MicroCal PEAQ-ITC, 25 °C, 20 mM Tris, 100 mM NaCl, pH 7.5; 0.7-4 mM peptide injected into the cell with 0.12 mM TRIM24-PHD-Bromo, 0.05 mM TRIM33 PHD-Bromo, or 0.05 or 0.11-[…] TRIM66-PHD-Bromo (or its mutants); single measurement, errors from the fitting curve
# [5] = target: T2, TRIM33_(882-1087) (PHD-Bromodomain) (human, UniProt Q9UPN9 882-1087); experiment: ITC; MicroCal PEAQ-ITC, 25 °C, 20 mM Tris, 100 mM NaCl, pH 7.5; 0.7-4 mM peptide injected into the cell with 0.12 mM TRIM24-PHD-Bromo, 0.05 mM TRIM33 PHD-Bromo, or 0.05 or 0.11-0.15 mM TRIM66-PHD-Bromo (or its mutants); single measurement, errors from the fitting curve; settings: both partners purified
# T2 construct: also called TRIM33 PHD-Bromo; source: E. coli BL21 (DE3), purified (Ni column, SUMO protease, second Ni column, Superdex 75)
# T2 sequence (looked up): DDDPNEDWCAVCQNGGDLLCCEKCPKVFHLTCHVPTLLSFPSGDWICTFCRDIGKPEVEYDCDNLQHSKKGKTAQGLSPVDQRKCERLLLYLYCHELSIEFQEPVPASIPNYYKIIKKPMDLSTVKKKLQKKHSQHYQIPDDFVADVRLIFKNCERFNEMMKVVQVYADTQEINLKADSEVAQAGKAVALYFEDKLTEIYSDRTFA
# [6] = target: T3, TRIM24_(824-1006) (PHD-Bromodomain) (human, UniProt O15164 824-1006); experiment: as above; settings: both partners purified
# T3 construct: TRIM24 PHD-Bromodomain, Homo sapiens, residues 824-1006 of UniProt O15164 (Isoform long); also called TRIM24-PHD-Bromo; source: E. coli BL21 (DE3), purified (Ni column, SUMO protease, second Ni column, Superdex 75)
# T3 sequence (looked up): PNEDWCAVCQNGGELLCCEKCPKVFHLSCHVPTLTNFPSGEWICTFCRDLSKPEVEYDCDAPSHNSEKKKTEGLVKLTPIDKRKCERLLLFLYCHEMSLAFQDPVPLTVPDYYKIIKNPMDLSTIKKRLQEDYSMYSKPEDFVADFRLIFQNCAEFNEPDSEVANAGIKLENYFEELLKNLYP
# [7] = target: T4, TRIM24_(824-1006) (human, UniProt O15164 824-1006); experiment: ITC; 0.7–4 mM peptide injected into a cell with 0.05 or 0.11–0.15 mM TRIM66-PHD-Bromo (or its mutants), 0.12 mM TRIM24-PHD-Bromo or 0.05 mM TRIM33 PHD-Bromo; 25 °C; 20 mM Tris, 100 mM NaCl, pH 7.5; MicroCal PEAQ-ITC; single measurement; settings: both partners purified
# T4 construct: TRIM24, human, PHD-Bromodomain, residues 824-1006, amplified from a human bone marrow cDNA library, in pET-SUMO-28a (+); also called TRIM24-PHD-Bromo; TRIM24 PHD-Bromodomain; source: E. coli BL21 (DE3), purified (Ni-chelating column, SUMO protease, second nickel column, Superdex 75)
# T4 sequence (looked up): T3 sequence (looked up)
# [8] = target: T5, TRIM33_(882-1087) (human, UniProt Q9UPN9 882-1087); experiment: as above; settings: both partners purified
# T5 construct: also called TRIM33 PHD-Bromo; TRIM33 PHD-Bromodomain; source: E. coli BL21 (DE3), purified (Ni-chelating column, SUMO protease, second nickel column, Superdex 75)
# T5 sequence (looked up): T2 sequence (looked up)
# [9] = ITC, 25 °C, pH 7.5, single measurement
molecule,measurement,setting,value
CNCCCC[C@H](NC(=O)[C@@H](NC(=O)[C@H](CCCNC(=N)N)NC(=O)[C@H](C)N)[C@@H](C)O)C(=O)N[C@@H](CCC(N)=O)C(=O)N[C@H](C(=O)N[C@@H](C)C(=O)N[C@@H](CCCNC(=N)N)C(=O)N[C@@H](CCCCN)C(=O)N[C@@H](CO)C(=O)N[C@H](C(=O)NCC(=O)O)[C@@H](C)O)[C@@H](C)O [H3K4me1],Kd,[1]; [9],42.8 ± 2.45 µM
CNC(=N)NCCC[C@H](NC(=O)[C@H](C)N)C(=O)N[C@H](C(=O)N[C@@H](CCCCN)C(=O)N[C@@H](CCC(N)=O)C(=O)N[C@H](C(=O)N[C@@H](C)C(=O)N[C@@H](CCCNC(=N)N)C(=O)N[C@@H](CCCCN)C(=O)N[C@@H](CO)C(=O)N[C@H](C(=O)NCC(=O)O)[C@@H](C)O)[C@@H](C)O)[C@@H](C)O [H3R2me1],Kd,[1]; [9],72.4 ± 3.27 µM
C[C@H](N)C(=O)N[C@@H](CCCNC(=N)N(C)C)C(=O)N[C@H](C(=O)N[C@@H](CCCCN)C(=O)N[C@@H](CCC(N)=O)C(=O)N[C@H](C(=O)N[C@@H](C)C(=O)N[C@@H](CCCNC(=N)N)C(=O)N[C@@H](CCCCN)C(=O)N[C@@H](CO)C(=O)N[C@H](C(=O)NCC(=O)O)[C@@H](C)O)[C@@H](C)O)[C@@H](C)O [H3R2me2a],Kd,[1]; [9],110 ± 11.9 µM
ARTKQTARKSTGGKALREIRRYQK(Ac)S [H3(1-15)-(48-57)K56ac],binding (in words),"[1]; ITC, 25 °C, pH 7.5",higher affinity than that for the individual peptides
same,-T△S,[1]; [9],6.91 kcal per mol
same,N (stoichiometry),[1]; [9],1.17±0.01
same,△H,[1]; [9],-15.5±0.15 kcal per mol
same,fold higher affinity than for the H3_1-12 peptide,[1]; ratio of KD,30 fold
same,fold higher affinity than for the H3_48-57K56ac peptide,[1]; ratio of KD,210 fold
H3K4me2: dimethylated H3K4 peptide,KD,[1]; [9],Weak binding
H3K4me3: trimethylated H3K4 peptide,KD,[1]; [9],Weak binding
H3_(1-12)K4me1 peptide (from UniProt P68431 2-13),stoichiometry N,[2],1.1
same,Kd,[3],42.8 µM
H3_(1-12)R2me1 peptide (from UniProt P68431 2-13),stoichiometry N,[2],0.91
same,Kd,[3],72.4 µM
H3_(1-12)R2me2a peptide (from UniProt P68431 2-13),stoichiometry N,[2],0.98
same,Kd,[3],110 µM
H3_(48-57)K56ac peptide (from UniProt P68431 49-58),Kd,[4],127 µM
same,stoichiometry N,[4],1.23
same,stoichiometry N,[2],1.07
same,Kd,[3],109 µM
H3_((1-15)-(48-57))K56ac peptide (from UniProt P68431 2-16; P68431 49-58),stoichiometry N,[2],1.17
same,Kd,[3],0.52 µM
B1,stoichiometry N,[5],1.06
same,stoichiometry N,[6],0.86
B2,Kd,[7],72.7 µM
same,Kd,[8],5.1 µM
B3,Kd,[7],76.8 µM
same,Kd,[8],6.23 µM
B4,stoichiometry N,[5],0.8
same,stoichiometry N,[6],0.93
